Experimental data from paper PMC9352680, “A comprehensive thermodynamic model for RNA binding by the Saccharomyces cerevisiae Pumilio protein PUF4”.

T1: PUF4 RNA-binding domain (Saccharomyces cerevisiae, UniProt P25339 537-888)
T1 sequence: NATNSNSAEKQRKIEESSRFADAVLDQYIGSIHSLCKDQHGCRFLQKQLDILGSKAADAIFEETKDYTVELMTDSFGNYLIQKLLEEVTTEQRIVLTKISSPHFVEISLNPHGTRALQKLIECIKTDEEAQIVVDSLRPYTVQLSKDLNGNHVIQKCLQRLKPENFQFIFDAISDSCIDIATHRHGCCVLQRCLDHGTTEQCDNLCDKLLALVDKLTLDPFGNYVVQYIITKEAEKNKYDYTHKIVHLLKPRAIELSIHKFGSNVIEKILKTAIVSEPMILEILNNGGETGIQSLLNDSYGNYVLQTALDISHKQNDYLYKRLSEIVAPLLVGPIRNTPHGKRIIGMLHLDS

B1: Id_ii_S1_P5E.3_K5.2_C5.2_[C-2T]_[T-1C]_H5.2_A5.1_F5.1_T5.2_[T11C]_[A12C] (ssRNA)
RNA: UCUCUUUCUAUAUUAUUACCUCUCUU
B2: Ic_S1_P4E.1_K4.1_C4.1_H4.1_A4.1_[A6C]_[T7C]_F4.1_T4.1 (ssRNA)
RNA: UCUCUUUGUAUCCUAUCUCUU
B3: Id_ii_S1_P5E.3_K5.2_C5.2_[C-2G]_H5.2_A5.1_F5.1_T5.2_[T11G]_[A12T] (ssRNA)
RNA: UCUCUUGUUAUAUUAUUAGUUCUCUU
B4: Id_ii_S1_P5E.3_K5.2_C5.2_[C-2T]_H5.2_A5.1_F5.1_T5.2_[T11A]_[A12T] (ssRNA)
RNA: UCUCUUUUUAUAUUAUUAAUUCUCUU
B5: Id_ii_S1_P5E.2_K5.1_C5.2_H5.1_A5.1_F5.1_T5.2_[A12C] (ssRNA)
RNA: UCUCUUCUUGUAUUAUUAUCUCUCUU
B6: Id_ii_S1_P5E.2_K5.1_C5.2_H5.1_A5.1_F5.1_T5.2_[A12G] (ssRNA)
RNA: UCUCUUCUUGUAUUAUUAUGUCUCUU
B7: Id_ii_S1_P5E.3_K5.2_C5.2_[C-2T]_H5.2_A5.1_F5.1_T5.2_[T11C] (ssRNA)
RNA: UCUCUUUUUAUAUUAUUACAUCUCUU
B8: Id_ii_S1_P5E.3_K5.2_C5.2_[C-2T]_[T-1G]_H5.2_A5.1_F5.1_T5.2_[T11A]_[A12T] (ssRNA)
RNA: UCUCUUUGUAUAUUAUUAAUUCUCUU
B9: Id_ii_S1_P5E.2_K5.1_C5.2_H5.1_A5.1_F5.1_T5.2_[T11A]_[A12C] (ssRNA)
RNA: UCUCUUCUUGUAUUAUUAACUCUCUU
B10: Id_ii_S1_P5E.3_K5.2_C5.2_[C-2T]_H5.2_A5.1_F5.1_T5.2_[T11C]_[A12T] (ssRNA)
RNA: UCUCUUUUUAUAUUAUUACUUCUCUU
B11: Id_ii_S1_P5E.3_K5.2_C5.2_[C-2T]_[T-1C]_H5.2_A5.1_F5.1_T5.2_[A12C] (ssRNA)
RNA: UCUCUUUCUAUAUUAUUAUCUCUCUU
B12: Id_ii_S1_P5E.3_K5.2_C5.2_[C-2T]_[T-1A]_H5.2_A5.1_F5.1_T5.2_[A12C] (ssRNA)
RNA: UCUCUUUAUAUAUUAUUAUCUCUCUU
B13: Id_ii_S1_P5E.3_K5.2_C5.2_[C-2G]_[T-1C]_H5.2_A5.1_F5.1_T5.2_[T11A]_[A12C] (ssRNA)
RNA: UCUCUUGCUAUAUUAUUAACUCUCUU
B14: Id_ii_S1_P5E.3_K5.2_C5.2_[C-2T]_[T-1A]_H5.2_A5.1_F5.1_T5.2_[T11A]_[A12T] (ssRNA)
RNA: UCUCUUUAUAUAUUAUUAAUUCUCUU
B15: Id_ii_S1_P5E.2_K5.1_C5.2_H5.1_A5.1_F5.1_T5.2_[T11A]_[A12T] (ssRNA)
RNA: UCUCUUCUUGUAUUAUUAAUUCUCUU
B16: Id_ii_S1_P5E.3_K5.2_C5.2_[C-2T]_[T-1A]_H5.2_A5.1_F5.1_T5.2_[A12T] (ssRNA)
RNA: UCUCUUUAUAUAUUAUUAUUUCUCUU
B17: Id_ii_S1_P5E.3_K5.2_C5.2_[C-2T]_[T-1A]_H5.2_A5.1_F5.1_T5.2_[T11A]_[A12C] (ssRNA)
RNA: UCUCUUUAUAUAUUAUUAACUCUCUU
B18: Id_ii_S1_P5E.3_K5.2_C5.2_[C-2G]_[T-1C]_H5.2_A5.1_F5.1_T5.2_[A12C] (ssRNA)
RNA: UCUCUUGCUAUAUUAUUAUCUCUCUU
B19: Id_ii_S1_P5E.3_K5.2_C5.2_[C-2T]_[T-1A]_H5.2_A5.1_F5.1_T5.2_[T11G]_[A12C] (ssRNA)
RNA: UCUCUUUAUAUAUUAUUAGCUCUCUU
B20: Id_ii_S1_P5E.3_K5.2_C5.2_[C-2T]_[T-1G]_H5.2_A5.1_F5.1_T5.2_[A12T] (ssRNA)
RNA: UCUCUUUGUAUAUUAUUAUUUCUCUU
B21: Id_ii_S1_P5E.3_K5.2_C5.2_[C-2G]_[T-1C]_H5.2_A5.1_F5.1_T5.2_[T11C]_[A12C] (ssRNA)
RNA: UCUCUUGCUAUAUUAUUACCUCUCUU
B22: Id_ii_S1_P5E.3_K5.2_C5.2_[C-2G]_[T-1C]_H5.2_A5.1_F5.1_T5.2_[A12T] (ssRNA)
RNA: UCUCUUGCUAUAUUAUUAUUUCUCUU
B23: Id_ii_S1_P5E.3_K5.2_C5.2_[C-2T]_[T-1C]_H5.2_A5.1_F5.1_T5.2_[T11A]_[A12G] (ssRNA)
RNA: UCUCUUUCUAUAUUAUUAAGUCUCUU
B24: Id_ii_S1_P5E.3_K5.2_C5.2_[C-2T]_[T-1C]_H5.2_A5.1_F5.1_T5.2_[T11C] (ssRNA)
RNA: UCUCUUUCUAUAUUAUUACAUCUCUU
B25: Id_ii_S1_P5E.3_K5.2_C5.2_[C-2T]_H5.2_A5.1_F5.1_T5.2_[A12C] (ssRNA)
RNA: UCUCUUUUUAUAUUAUUAUCUCUCUU
B26: Id_ii_S1_P5E.2_K5.1_C5.2_H5.1_A5.1_F5.1_T5.2_[A12T] (ssRNA)
RNA: UCUCUUCUUGUAUUAUUAUUUCUCUU
B27: Ic_S1_P4E.1_K4.1_C4.1_H4.1_A4.1_[A6C]_[T7A]_F4.1_T4.1 (ssRNA)
RNA: UCUCUUUGUAUCAUAUCUCUU
B28: Id_ii_S1_P5E.3_K5.2_C5.2_[C-2G]_H5.2_A5.1_F5.1_T5.2_[A12C] (ssRNA)
RNA: UCUCUUGUUAUAUUAUUAUCUCUCUU
B29: Id_ii_S1_P5E.3_K5.2_C5.2_[C-2T]_[T-1A]_H5.2_A5.1_F5.1_T5.2_[T11G]_[A12T] (ssRNA)
RNA: UCUCUUUAUAUAUUAUUAGUUCUCUU
B30: Ib_S1_P4E.1_K4.1_C4.1_H4.1_A4.1_[A6T]_[T7G]_F4.1_T4.1 (ssRNA)
RNA: UCUCUUUGUAUUGUAUCUCUU
B31: Id_ii_S1_P5E.3_K5.2_C5.2_[C-2T]_[T-1G]_H5.2_A5.1_F5.1_T5.2_[A12C] (ssRNA)
RNA: UCUCUUUGUAUAUUAUUAUCUCUCUU

Target: T1, PUF4 RNA-binding domain
Assay: Mg; RNA-MaP; 20 mM Na-HEPES pH 7.4, 30 mM KOAc, 0.75 mM MgCl2, 0.1% Tween-20, 5% glycerol, 0.1 mg/mL BSA, 2 mM DTT; 25 C; 0.0125-409.6 nM protein
Settings: tags: N-His6-TEV cleaved; C-SNAP kept, Cy3B-labelled; label: tethered on chip by stalled RNA polymerase

| Binder | Kd |
| --- | --- |
| B1 | 388 nM |
| B2 | 4.4 nM |
| B3 | 15.3 nM |
| B4 | 457 nM |
| B5 | 5.07 nM |
| B6 | 5.83 nM |
| B7 | 497 nM |
| B8 | 0.615 nM |
| B9 | 5.25 nM |
| B10 | 414 nM |
| B11 | 455 nM |
| B12 | 21 nM |
| B13 | 346 nM |
| B14 | 21 nM |
| B15 | 8.8 nM |
| B16 | 17.6 nM |

| Binder | Kd |
| --- | --- |
| B17 | 15.9 nM |
| B18 | 307 nM |
| B19 | 13.7 nM |
| B20 | 0.826 nM |
| B21 | 340 nM |
| B22 | 391 nM |
| B23 | 582 nM |
| B24 | 630 nM |
| B25 | 550 nM |
| B26 | 4.09 nM |
| B27 | 1.04 nM |
| B28 | 16.3 nM |
| B29 | 22.2 nM |
| B30 | 7.79 nM |
| B31 | 0.576 nM |
